Assay in all cases: competitive inhibition of enzyme activity
One experiment addresses T1, [NO2Y730]-α2(Y731F) (E. coli, UniProt P00452 1-761, Y731F, 3-nitrotyrosine (NO2Y) in place of Y730).
T1 sequence (looked up): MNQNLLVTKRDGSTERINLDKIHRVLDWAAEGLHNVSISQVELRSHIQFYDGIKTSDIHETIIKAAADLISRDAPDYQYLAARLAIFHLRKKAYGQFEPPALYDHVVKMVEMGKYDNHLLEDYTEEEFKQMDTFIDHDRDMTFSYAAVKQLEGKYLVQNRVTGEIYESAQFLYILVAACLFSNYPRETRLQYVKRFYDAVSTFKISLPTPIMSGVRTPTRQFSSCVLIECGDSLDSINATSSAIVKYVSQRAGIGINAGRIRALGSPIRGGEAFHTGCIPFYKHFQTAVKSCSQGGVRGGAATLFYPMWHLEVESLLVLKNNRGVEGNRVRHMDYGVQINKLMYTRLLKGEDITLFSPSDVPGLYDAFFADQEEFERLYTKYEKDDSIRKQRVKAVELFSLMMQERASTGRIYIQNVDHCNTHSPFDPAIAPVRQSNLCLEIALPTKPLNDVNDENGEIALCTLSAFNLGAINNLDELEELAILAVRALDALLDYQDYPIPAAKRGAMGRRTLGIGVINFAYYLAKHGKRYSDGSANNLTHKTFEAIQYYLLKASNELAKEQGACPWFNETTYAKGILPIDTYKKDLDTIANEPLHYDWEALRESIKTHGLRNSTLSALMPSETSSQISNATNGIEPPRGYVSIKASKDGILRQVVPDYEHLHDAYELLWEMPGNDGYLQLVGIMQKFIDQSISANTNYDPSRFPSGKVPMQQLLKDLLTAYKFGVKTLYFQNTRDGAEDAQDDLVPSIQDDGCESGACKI

In another experiment the target is T2, [NO2Y730]-α2(C439S) (E. coli, UniProt P00452 1-761, C439S, 3-nitrotyrosine (NO2Y) in place of Y730).
T2 sequence (looked up): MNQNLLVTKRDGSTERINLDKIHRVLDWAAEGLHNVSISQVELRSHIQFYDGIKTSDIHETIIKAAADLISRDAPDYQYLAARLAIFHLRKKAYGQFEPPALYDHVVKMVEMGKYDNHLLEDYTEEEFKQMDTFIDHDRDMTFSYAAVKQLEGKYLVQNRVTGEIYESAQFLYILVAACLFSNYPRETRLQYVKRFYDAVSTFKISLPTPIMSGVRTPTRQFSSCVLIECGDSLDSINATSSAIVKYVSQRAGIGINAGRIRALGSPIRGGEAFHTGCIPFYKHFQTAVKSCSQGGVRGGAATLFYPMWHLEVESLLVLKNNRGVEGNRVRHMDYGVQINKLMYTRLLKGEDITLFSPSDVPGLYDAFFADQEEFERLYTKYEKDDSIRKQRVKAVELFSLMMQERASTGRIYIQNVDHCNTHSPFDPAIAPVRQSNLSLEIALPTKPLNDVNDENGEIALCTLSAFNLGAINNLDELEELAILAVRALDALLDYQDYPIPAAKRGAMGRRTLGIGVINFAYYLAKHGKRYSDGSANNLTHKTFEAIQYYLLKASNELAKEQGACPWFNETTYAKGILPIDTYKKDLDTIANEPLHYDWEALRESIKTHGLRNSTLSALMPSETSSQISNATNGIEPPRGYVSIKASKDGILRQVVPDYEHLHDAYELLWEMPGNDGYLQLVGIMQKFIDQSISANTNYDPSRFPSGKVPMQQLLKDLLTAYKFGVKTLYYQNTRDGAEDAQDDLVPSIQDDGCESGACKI

The target of experiment [1] is T3, wild-type E. coli ribonucleotide reductase α2 subunit (E. coli, UniProt P00452 1-761).
T3 sequence (looked up): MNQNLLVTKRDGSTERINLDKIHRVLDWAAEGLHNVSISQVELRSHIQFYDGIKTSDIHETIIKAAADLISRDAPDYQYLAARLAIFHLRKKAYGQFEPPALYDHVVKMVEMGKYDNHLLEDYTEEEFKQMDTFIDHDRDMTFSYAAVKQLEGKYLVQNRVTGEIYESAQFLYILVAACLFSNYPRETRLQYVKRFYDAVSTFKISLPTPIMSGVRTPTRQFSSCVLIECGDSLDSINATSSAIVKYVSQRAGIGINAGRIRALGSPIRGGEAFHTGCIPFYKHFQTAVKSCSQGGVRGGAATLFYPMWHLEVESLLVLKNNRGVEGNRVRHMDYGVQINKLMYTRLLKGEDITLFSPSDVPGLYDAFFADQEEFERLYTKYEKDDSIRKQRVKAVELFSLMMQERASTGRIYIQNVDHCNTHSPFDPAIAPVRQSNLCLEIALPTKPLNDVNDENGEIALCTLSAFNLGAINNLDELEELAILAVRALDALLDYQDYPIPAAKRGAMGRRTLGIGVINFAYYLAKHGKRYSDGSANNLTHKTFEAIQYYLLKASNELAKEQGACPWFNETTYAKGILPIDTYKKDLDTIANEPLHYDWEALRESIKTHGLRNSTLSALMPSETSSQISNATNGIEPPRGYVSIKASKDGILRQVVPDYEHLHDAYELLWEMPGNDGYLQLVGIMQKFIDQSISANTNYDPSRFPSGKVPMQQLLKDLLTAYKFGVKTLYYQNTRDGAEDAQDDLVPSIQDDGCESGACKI

B1: wild-type E. coli ribonucleotide reductase β2 subunit (enzyme, UniProt P69924 1-376, looked up)
chain: MAYTTFSQTKNDQLKEPMFFGQPVNVARYDQQKYDIFEKLIEKQLSFFWRPEEVDVSRDRIDYQALPEHEKHIFISNLKYQTLLDSIQGRSPNVALLPLISIPELETWVETWAFSETIHSRSYTHIIRNIVNDPSVVFDDIVTNEQIQKRAEGISSYYDELIEMTSYWHLLGEGTHTVNGKTVTVSLRELKKKLYLCLMSVNALEAIRFYVSFACSFAFAERELMEGNAKIIRLIARDEALHLTGTQHMLNLLRSGADDPEMAEIAEECKQECYDLFVQAAQQEKDWADYLFRDGSMIGLNKDILCQYVEYITNIRMQAVGLDLPFQTRSNPIPWINTWLVSDNVQVAPQEVEVSSYLVGQIDSEVDTDDLSNFQL
modifications: tyrosyl radical at Y122 (1-1.2 radicals per β2), diferric cluster
Take B1: the results for the Kd in experiment [NO2Y730]-α2(Y731F) and in experiment [NO2Y730]-α2(C439S) were 1450 ± 140 nM and 1280 ± 70 nM, respectively. The binding result in experiment [1] is listed as “binds”.

As a reminder, the Kd is a measure of binding affinity in units of concentration. Low values mean tighter binding, high ones weaker binding.

These data come from paper PMC2905227 (Journal of the American Chemical Society, 2010).
